In the supplement of paper PMC11246515:
± gives the standard deviation of the averaged measurements.

Experiment: total protein half-life in vivo (active degradation + dilution); higher = more stable protein
[1] = E. coli NCM3722 delta-clpP delta-lon delta-hslV, growth: N-lim chemostat, doubling time 6 h
[2] = E. coli NCM3722 delta-clpP, growth: N-lim chemostat, doubling time 6 h
[3] = E. coli NCM3722 delta-hslV, growth: N-lim chemostat, doubling time 6 h
[4] = E. coli NCM3722 delta-lon, growth: N-lim chemostat, doubling time 6 h
[5] = E. coli NCM3722 delta-smpB, growth: N-lim chemostat, doubling time 6 h
[6] = wild type E. coli NCM3722, growth: C-lim chemostat, doubling time 3 h
[7] = wild type E. coli NCM3722, growth: C-lim chemostat, doubling time 6 h
[8] = wild type E. coli NCM3722, growth: C-lim chemostat, doubling time 12 h
[9] = wild type E. coli NCM3722, growth: N-lim chemostat, doubling time 6 h
[10] = wild type E. coli NCM3722, growth: N-lim chemostat, doubling time 12 h
[11] = wild type E. coli NCM3722, growth: P-lim chemostat, doubling time 6 h
[12] = wild type E. coli NCM3722, growth: P-lim chemostat, doubling time 12 h

Row | Sequence | total protein half-life in vivo [1] [h] | total protein half-life in vivo [2] [h] | total protein half-life in vivo [3] [h] | total protein half-life in vivo [4] [h] | total protein half-life in vivo [5] [h] | total protein half-life in vivo [6] [h] | total protein half-life in vivo [7] [h] | total protein half-life in vivo [8] [h] | total protein half-life in vivo [9] [h] | total protein half-life in vivo [10] [h] | total protein half-life in vivo [11] [h] | total protein half-life in vivo [12] [h]
1 | MSNTYQKRKASKEYGLYNQCKKLNDDELFRLLDDHNSLKRISSARVLQLRGGQDAVRLAIEFCSDKNYIRRDIGAFILGQIKICKKCEDNVFNILNNMALNDKSACVRATAIESTAQRCKKNPIYSPKIVEQSQITAFDKSTNVRRATAFAISVINDKATIPLLINLLKDPNGDVRNWAAFAININKYDNSDIRDCFVEMLQDKNEEVRIEAIIGLSYRKDKRVLSVLCDELKKNTVYDDIIEAAGELGDKTLLPVLDTMLYKFDDNEIITSAIDKLKRS [P0ADK6] | 5.51 ± 0.25 | 4.904 ± 0.018 | 2.92 ± 1.5 | 2.68 ± 0.43 | 1.77 ± 0.26 | 2.016 ± 0.02 | 3.9 ± 0.61 | 5.23 ± 0.093 | 2.17 ± 0.22 | 2.62 ± 0.074 | 2.65 ± 0.32 | 4.89 ± 1
2 | MSNVIASLEKVLLPFAVKIGKQPHVNAIKNGFIRLMPLTLAGAMFVLINNVFLSFGEGSFFYSLGIRLDASTIETLNGLKGIGGNVYNGTLGIMSLMAPFFIGMALAEERKVDALAAGLLSVAAFMTVTPYSVGEAYAVGANWLGGANIISGIIIGLVVAEMFTFIVRRNWVIKLPDSVPASVSRSFSALIPGFIILSVMGIIAWALNTWGTNFHQIIMDTISTPLASLGSVVGWAYVIFVPLLWFFGIHGALALTALDNGIMTPWALENIATYQQYGSVEAALAAGKTFHIWAKPMLDSFIFLGGSGATLGLILAIFIASRRADYRQVAKLALPSGIFQINEPILFGLPIIMNPVMFIPFVLVQPILAAITLAAYYMGIIPPVTNIAPWTMPTGLGAFFNTNGSVAALLVALFNLGIATLIYLPFVVVANKAQNAIDKEESEEDIANALKF |  |  | 7.11 |  | 6.04 ± 0.73 |  | 6.68 ± 0.31 | 9.58 ± 2.1 | 6.51 |  |  | 13.3
3 | MSPCKLLPFCVALALTGCSLAPDYQRPAMPVPQQFSLSQNGLVNAADNYQNAGWRTFFVDNQVKTLISEALVNNRDLRMATLKVQEARAQYRLTDADRYPQLNGEGSGSWSGNLKGNTATTREFSTGLNASFDLDFFGRLKNMSEAERQNYLATEEAQRAVHILLVSNVAQSYFNQQLAYAQLQIAEETLRNYQQSYAFVEKQLLTGSSNVLALEQARGVIESTRSDIAKRQGELAQANNALQLLLGSYGKLPQAQTVNSDSLQSVKLPAGLSSQILLQRPDIMEAEHALMAANANIGAARAAFFPSISLTSGISTASSDLSSLFNASSGMWNFIPKIEIPIFNAGRNQANLDIAEIRQQQSVVNYEQKIQNAFKEVADALALRQSLNDQISAQQRYLASLQITLQRARALYQHGAVSYLEVLDAERSLFATRQTLLDLNYARQVNEISLYTALGGG | 6.75 |  |  | 5.11 ± 0.78 | 5.15 ± 2.9 |  | 7.18 | > 16 | 6.34 ± 0.14 | 12.47 ± 0.09 | 6.29 ± 0.17 | 13.07 ± 0.062
4 | MSQALKNLLTLLNLEKIEEGLFRGQSEDLGLRQVFGGQVVGQALYAAKETVPEERLVHSFHSYFLRPGDSKKPIIYDVETLRDGNSFSARRVAAIQNGKPIFYMTASFQAPEAGFEHQKTMPSAPAPDGLPSETQIAQSLAHLLPPVLKDKFICDRPLEVRPVEFHNPLKGHVAEPHRQVWIRANGSVPDDLRVHQYLLGYASDLNFLPVALQPHGIGFLEPGIQIATIDHSMWFHRPFNLNEWLLYSVESTSASSARGFVRGEFYTQDGVLVASTVQEGVMRNHN [P0AGG2] | 5.35 ± 0.059 | 5.17 ± 0.18 | 4.986 ± 0.04 | 5.37 ± 0.47 | 5.17 ± 0.67 |  | 6.42 ± 0.37 | 10.69 ± 0.082 | 5.04 ± 0.13 | 8.59 ± 0.29 | 5.922 ± 0.027 | 13.018 ± 0.0091
5 | MSQHNEKNPHQHQSPLHDSSEAKPGMDSLAPEDGSHRPAAEPTPPGAQPTAPGSLKAPDTRNEKLNSLEDVRKGSENYALTTNQGVRIADDQNSLRAGSRGPTLLEDFILREKITHFDHERIPERIVHARGSAAHGYFQPYKSLSDITKADFLSDPNKITPVFVRFSTVQGGAGSADTVRDIRGFATKFYTEEGIFDLVGNNTPIFFIQDAHKFPDFVHAVKPEPHWAIPQGQSAHDTFWDYVSLQPETLHNVMWAMSDRGIPRSYRTMEGFGIHTFRLINAEGKATFVRFHWKPLAGKASLVWDEAQKLTGRDPDFHRRELWEAIEAGDFPEYELGFQLIPEEDEFKFDFDLLDPTKLIPEELVPVQRVGKMVLNRNPDNFFAENEQAAFHPGHIVPGLDFTNDPLLQGRLFSYTDTQISRLGGPNFHEIPINRPTCPYHNFQRDGMHRMGIDTNPANYEPNSINDNWPRETPPGPKRGGFESYQERVEGNKVRERSPSFGEYYSHPRLFWLSQTPFEQRHIVDGFSFELSKVVRPYIRERVVDQLAHIDLTLAQAVAKNLGIELTDDQLNITPPPDVNGLKKDPSLSLYAIPDGDVKGRVVAILLNDEVRSADLLAILKALKAKGVHAKLLYSRMGEVTADDGTVLPIAATFAGAPSLTVDAVIVPCGNIADIADNGDANYYLMEAYKHLKPIALAGDARKFKATIKIADQGEEGIVEADSADGSFMDELLTLMAAHRVWSRIPKIDKIPA | 6.34 ± 0.49 | 6.14 ± 0.56 | 5.76 ± 0.4 | 5.78 ± 0.094 | 5.28 ± 0.077 | 2.79 ± 0.4 | 5.76 ± 0.23 | 10.8 ± 0.26 | 5.81 ± 0.24 | 12.3 ± 1.9 | 5.88 ± 0.41 | 11.9 ± 0.53
6 | MSQIFAYCRISTLDQTTENQRREIESAGFKIKPQQIIEEHISGSAATSERPGFNRLLARLKCGDQLIVTKLDRLGCNAMDIRKTVEQLTETGIRVHCLALGGIDLTSPTGKMMMQVISAVAEFERDLLLERTHSGIVRARGAGKRFGRPPVLNEEQKQAVFERIKSGVSISAIAREFKTSRQTILRAKAKLQTPDI | 5.84 ± 0.17 |  |  | 3.81 | 1.43 | 1.59 |  | 4.26 |  |  |  | 
7 | MSQIHKHTIPANIADRCLINPQQYEAMYQQSINVPDTFWGEQGKILDWIKPYQKVKNTSFAPGNVSIKWYEDGTLNLAANCLDRHLQENGDRTAIIWEGDDASQSKHISYKELHRDVCRFANTLLELGIKKGDVVAIYMPMVPEAAVAMLACARIGAVHSVIFGGFSPEAVAGRIIDSNSRLVITSDEGVRAGRSIPLKKNVDDALKNPNVTSVEHVVVLKRTGGKIDWQEGRDLWWHDLVEQASDQHQAEEMNAEDPLFILYTSGSTGKPKGVLHTTGGYLVYAALTFKYVFDYHPGDIYWCTADVGWVTGHSYLLYGPLACGATTLMFEGVPNWPTPARMAQVVDKHQVNILYTAPTAIRALMAEGDKAIEGTDRSSLRILGSVGEPINPEAWEWYWKKIGNEKCPVVDTWWQTETGGFMITPLPGATELKAGSATRPFFGVQPALVDNEGNPLEGATEGSLVITDSWPGQARTLFGDHERFEQTYFSTFKNMYFSGDGARRDEDGYYWITGRVDDVLNVSGHRLGTAEIESALVAHPKIAEAAVVGIPHNIKGQAIYAYVTLNHGEEPSPELYAEVRNWVRKEIGPLATPDVLHWTDSLPKTRSGKIMRRILRKIAAGDTSNLGDTSTLADPGVVEKLLEEKQAIAMPS | 4.67 ± 0.31 | 4.83 ± 0.67 | 3.24 ± 0.14 | 3.54 ± 0.24 | 3.221 ± 0.018 | 2.89 ± 0.091 | 4.91 ± 0.44 | 7.66 ± 0.46 | 3.88 ± 0.81 | 4.67 ± 0.55 | 4.28 ± 0.03 | 7.43 ± 0.81
